Molecular target: the molecule itself
Assay: cryo-EM structure

B1: Simian Virus 40 (SV40) Large Tumour Antigen (LTag) (enzyme)
chain: MDKVLNREESLQLMDLLGLERSAWGNIPLMRKAYLKKCKEFHPDKGGDEEKMKKMNTLYKKMEDGVKYAHQPDFGGFWDATEIPTYGTDEWEQWWNAFNEENLFCSEEMPSSDDEATADSQHSTPPKKKRKVEDPKDFPSELLSFLSHAVFSNRTLACFAIYTTKEKAALLYKKIMEKYSVTFISRHNSYNHNILFFLTPHRHRVSAINNYAQKLCTFSFLICKGVNKEYLMYSALTRDPFSVIEESLPGGLKEHDFNPEEAEETKQVSWKLVTEYAMETKCDDVLLLLGMYLEFQYSFEMCLKCIKKEQPSHYKYHEKHYANAAIFADSKNQKTICQQAVDTVLAKKRVDSLQLTREQMLTNRFNDLLDRMDIMFGSTGSADIEEWMAGVAWLHCLLPKMDSVVYDFLKCMVYNIPKKRYWLFKGPIDSGKTTLAAALLELCGGKALNVNLPLDRLNFELGVAIDQFLVVFEDVKGTGGESRDLPSGQGINNLDNLRDYLDGSVKVNLEKKHLNKRTQIFPPGIVTMNEYSVPKTLQARFVKQIDFRPKDYLKHCLERSEFLLEKRIIQSGIALLLMLIWYRPVAEFAQSIQSRIVEWKERLDKEFSLSVYQKMKFNVAMGIGVLDWLRNSDDDDEDSQENADKNEDGGEKNMEDSGHETGIDSQSQGSFQAPQSSQSVHDHNQPYHICRGFTCFKKPPTPPPEPET
In the case of B1, the “stoichiometry N” value is reported as 6.

Reference: paper doi:10.1101/2024.04.19.590217 (bioRxiv, 2024)
